Source: patent US20260125477A1 (BEIJING MABWORKS BIOTECH, published 2026)

What was measured:
[1] = target: T1, recombinant human CD80 protein (human B7-1/CD80 protein, with His tag) (human, UniProt P33681 35-242); experiment: SPR (Biacore T200), antibody captured on Protein A chip
T1 construct: Bought protein
T1 sequence (looked up): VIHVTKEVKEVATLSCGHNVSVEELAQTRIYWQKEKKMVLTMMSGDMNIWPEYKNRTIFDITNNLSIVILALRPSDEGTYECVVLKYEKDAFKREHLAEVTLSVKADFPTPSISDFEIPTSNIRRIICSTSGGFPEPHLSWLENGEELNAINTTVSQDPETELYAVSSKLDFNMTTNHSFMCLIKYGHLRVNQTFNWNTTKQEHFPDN
Protocol: (§1) The anti-human B7-H3 antibodies were tested for their binding capability to B7 family proteins by SPR using Biacore T200 biosensor (Biacore, US) provided with a pre-fixed Protein A sensor chip.
(§2) The dissociation was monitored for 600 sec. The data was analyzed using Biacore 8k evaluation software version 3.0, to obtain the binding responses, and the protein concentration-binding response curves were plotted, to determine the cross-reaction of the anti-human B7-H3 antibodies to the B7 family proteins.

[2] = target: T2, human B7-2/CD86 protein, with His tag (human, UniProt P42081 26-247, limits assumed); experiment: as above
T2 construct: Bought protein
T2 sequence (looked up): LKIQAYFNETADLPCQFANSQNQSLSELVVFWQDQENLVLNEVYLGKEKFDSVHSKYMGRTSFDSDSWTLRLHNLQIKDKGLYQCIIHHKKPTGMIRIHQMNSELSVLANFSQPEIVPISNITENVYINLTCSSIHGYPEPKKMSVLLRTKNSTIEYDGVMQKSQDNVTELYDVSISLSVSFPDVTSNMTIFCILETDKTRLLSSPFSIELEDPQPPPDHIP
Protocol: as §1, §2

[3] = target: T3, human PD-L2/B7-DC protein, with His tag (human, UniProt Q9BQ51 20-219, limits assumed); experiment: as above
T3 construct: Bought protein
T3 sequence (looked up): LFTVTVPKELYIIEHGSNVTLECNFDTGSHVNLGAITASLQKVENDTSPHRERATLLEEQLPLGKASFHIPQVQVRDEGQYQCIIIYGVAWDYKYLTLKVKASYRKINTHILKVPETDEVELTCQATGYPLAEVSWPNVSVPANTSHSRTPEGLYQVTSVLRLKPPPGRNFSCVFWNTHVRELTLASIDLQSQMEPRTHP
Protocol: as §1, §2

[4] = target: T4, human B7-H2/ICOSLG protein, with His tag (human, UniProt O75144 19-258, limits assumed); experiment: as above
T4 construct: Bought protein
T4 sequence (looked up): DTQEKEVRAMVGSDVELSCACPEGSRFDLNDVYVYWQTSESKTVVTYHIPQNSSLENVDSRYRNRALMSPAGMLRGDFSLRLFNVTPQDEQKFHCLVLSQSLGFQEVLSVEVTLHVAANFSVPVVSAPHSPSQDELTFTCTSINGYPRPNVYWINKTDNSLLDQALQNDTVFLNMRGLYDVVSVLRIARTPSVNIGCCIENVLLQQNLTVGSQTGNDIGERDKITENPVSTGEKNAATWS
Protocol: as §1, §2

[5] = target: T5, mouse B7-H3/CD276 protein, with His tag (mouse, UniProt Q8VE98 29-244, limits assumed); experiment: as above
T5 construct: Bought protein
T5 sequence (looked up): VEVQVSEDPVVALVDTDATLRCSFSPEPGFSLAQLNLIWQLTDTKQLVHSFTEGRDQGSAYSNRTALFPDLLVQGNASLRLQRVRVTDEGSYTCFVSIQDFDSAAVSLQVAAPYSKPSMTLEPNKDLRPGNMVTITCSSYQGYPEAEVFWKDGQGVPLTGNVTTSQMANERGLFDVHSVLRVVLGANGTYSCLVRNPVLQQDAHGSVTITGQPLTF
Protocol: The fully human anti-human B7-H3 antibodies were tested for their binding affinity to human B7-H3 (4Ig), human B7-H3 (2Ig), monkey B7-H3 (monkey B7-H3/CD276 protein, with His tag, Cat #: B73-C52Ha, ACROBiosystems) and mouse B7-H3 protein (mouse B7-H3/CD276 protein, with His tag, Cat #: B73-M52H4, ACROBiosystems) by surface plasmon resonance (SPR) using Biacore T200 biosensor (Biacore, US) provided with a pre-fixed Protein A sensor chip. Briefly, the anti-human B7-H3 antibodies (1 μg/mL) were injected to the Biacore T200 biosensor at 10 μL/min for 20 sec, to achieve the desired protein density (100±30 RU).
The data as generated was analyzed using Biacore Insight V2.0.1 5.12933 with the one-to-one Langmuir binding model. The association rate (kₒₙ) and dissociation rate (koff) were obtained at the same time. The affinity was calculated as the quotient of the two kinetic rate constants (KD=koff/kₒₙ).

[6] = target: T1, recombinant human CD80 protein (human …); experiment: SPR (Biacore T200), 6B5 captured on Protein A chip; response against concentration
Protocol: as §1, §2

[7] = target: T2, human B7-2/CD86 protein, with His tag; experiment: as above
Protocol: as §1, §2

[8] = target: T6, human PD-L1/B7-H1 protein, with His tag (human, UniProt Q9NZQ7 19-238); experiment: as above
T6 construct: Bought protein
T6 sequence (Q9NZQ7 19-238 limits assumed): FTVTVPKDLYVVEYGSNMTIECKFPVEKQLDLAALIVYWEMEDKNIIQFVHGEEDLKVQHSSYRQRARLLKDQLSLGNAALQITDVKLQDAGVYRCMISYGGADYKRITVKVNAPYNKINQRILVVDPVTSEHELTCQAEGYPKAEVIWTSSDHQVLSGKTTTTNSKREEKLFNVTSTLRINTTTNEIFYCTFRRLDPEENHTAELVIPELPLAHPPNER
Protocol: as §1, §2

[9] = target: T4, human B7-H2/ICOSLG protein, with His tag; experiment: as above
Protocol: as §1, §2

[10] = target: T7, human B7-H5/Gi24/VISTA protein, with His tag (MALS verified) (human, UniProt Q9H7M9 33-194); experiment: as above
T7 construct: Bought protein
T7 sequence (looked up): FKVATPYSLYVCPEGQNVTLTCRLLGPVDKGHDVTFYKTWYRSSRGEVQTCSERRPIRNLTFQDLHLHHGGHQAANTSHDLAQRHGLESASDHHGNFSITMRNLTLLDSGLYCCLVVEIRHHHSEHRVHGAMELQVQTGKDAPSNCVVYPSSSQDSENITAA
Protocol: as §1, §2

B1: 10F5 (antibody, human IgG1, kappa, V domains shown)
VH: QVQLVQSGAEVKKPGSSVKVSCKASGGTFSSQAISWVRQAPGQGLEWMGRIIPMLGIGDYAQSFQGRVTITADKSTSTAYLEVSSLGSEDTAVYYCAREGIAALGTNYYYGMDVWGQGTAVTVSS
VL: EIVMTQSPSSVSASVGDRVTITCRASQGISRWLAWYQQKPGKAPKLLIYVASSLQSGVPSRFSGSGSGTDFTLTISSLQPEDFATYYCQQANSFPFTFGPGTKVDIRR
notes: also called Ab10F5
binding result [1]: no binding (tested: 200 nM) | binding result [2]: no binding (tested: 200 nM) | binding result [3]: no binding (tested: 200 nM) | binding result [4]: no binding (tested: 200 nM)

B2: 10D7 (antibody, human IgG1, kappa, V domains shown)
VH: QVQLVQSGPGLVKPSETLSLTCTVSGGSISRSSYYWGWIRQPPGKGLEWIGNIFYAGSTYYNPSLKSRVTISVDTSKNQFSLKLSSVTAADTAVYYCARRITGTTGWFDPWGQGTLVTVSS
VL: DIQLTQSPSSLSASVGDRVTITCRASQGIRNDLGWYQQKPGKAPKLLIYAASTLQSGVPSRFSGSGSGTDFTLTISSLQPEDFATYYCLQDYNYPRTFGQGTKVEIKR
notes: also called 10D7-WT; Ab10D7
binding result [1]: no binding (tested: 200 nM) | binding result [5]: no binding (tested: 200 nM highest antigen concentration)

B3: Enoblituzumab (antibody, human IgG1, kappa, V domains shown)
VH: EVQLVESGGGLVQPGGSLRLSCAASGFTFSSFGMHWVRQAPGKGLEWVAYISSDSSAIYYADTVKGRFTISRDNAKNSLYLQMNSLRDEDTAVYYCGRGRENIYYGSRLDYWGQGTTVTVSS
VL: DIQLTQSPSFLSASVGDRVTITCKASQNVDTNVAWYQQKPGKAPKALIYSASYRYSGVPSRFSGSGSGTDFTLTISSLQPEDFATYYCQQYNNYPFTFGQGTKLEIKR
notes: Humanized anti-B7-H3 antibody of MacroGenics with optimised Fc, used as the positive control; also called AbEno; enoblituzumab-IgG1-Mut
binding result [5]: no binding (tested: 200 nM highest antigen concentration)

B4: 6B5 (antibody, human IgG1, kappa, V domains shown)
VH: QVQLVESGPGLVKPSQTLSLTCTVSDGSISSGGYYWSWIRQHPGKGLEWIGYIYYSGGTYYSPSLKSRVTISVDTSKNQFSLKLTSVTAADTAVYYCARRAGYSSSFDSWGQGILVTVSS
VL: EIVLTQSPLSLPVTPGEPASISCRSSQSLLYSNGYTYLDWYLQKPGQSPQFLIYLGFNRASGVPDRFSGSGSGTDFTLKISRVEAEDVGVYYCMQGLQTPYTFGQGTKLEIKR
notes: also called 6B5-WT; Ab6B5
binding result [6]: no binding (tested: 200 nM) | binding result [7]: no binding (tested: 200 nM) | binding result [8]: no binding (tested: 200 nM) | binding result [9]: no binding (tested: 200 nM) | binding result [10]: no binding (tested: 200 nM)
